Assay results from article PMC5861037.

Target: DosR (Mycobacterium tuberculosis H37Rv) (UniProt P9WMF9)
Assay: EMSA
Conditions: 25 mM Tris-HCl pH 8.0, 20 mM KCl, 0.5 mM EDTA, 6 mM MgCl2, 1 mM DTT, 1 ug/mL poly I:C; room temperature, 10 min; 6.5% native Tris-glycine PAGE, silver staining

Sequence: TTGATGCCTCCTAATCGATGGAAACGGATGCCTTTGATCCGACCAGCCCATCGTGGCCAGGGCTAGGGACAGAAGTCCCCGAAGCGCGGGCCATTTGTCCGCGCCCGTCGGTGATCCACTTGGGGACCATTGACCCTGTTGTCTGCCA (double strand) [acr promoter fragment]
- binding: binds
